From US20260116970A1 (NMI NATURWISSENSCHAFTLICHES UND MEDIZINISCHES INSTITUT AN …, published 2026)
Changes are numbered by the printed parent chain. Names may count otherwise.

B1: hSIRPα nanobody S45 (VHH)
VHH: HVQLVESGGGLVQPGGSLRLSCAARGFSFRDSAMSWARQAPGKGLEWVGAIYSDGSTVYEKSVKGRFTISRDNAKNTMYLQMHSLKPEDSARYYCAPKGVVADEGDYSGQGTLVTVSS
notes: also called Nb S45
B2: hSIRPα nanobody S44 (VHH)
VHH: QVQLQESGGGLVQPGGSLRLACAASGFTFSSYDMSWVRQAPGKGLEWVSDIKSGGGRTYYADSVKGRFTISRDNAKNTVYLQMNSLKPEDTAVYYCGSLDNSGAYTGGGQGSQVTVSS
notes: also called Nb S44
B3: hSIRPα nanobody S8 (VHH)
VHH: QVQLVESGGGLVQPGGSLRLSCADSEFRLDEYATGWFRQAPGKEREGVACISRSGSNTKYTDSVKGRFTISRDNAKKTVYLQMNSLKPEDTAVYYCAADLTSHYLSCSSYTDYNSWGQGTQVTVSS
notes: Purified by IMAC; the tag is not described; also called Nb S8
B4: hSIRPα nanobody S12 (VHH)
VHH: QVQLVESGGGLVQPGGSLRLSCLVSGFSSSYYAIGWFRQAPGKEREGVSCITRSGDTTNYADSVKGRFTISRDDARNTVYLQMNSLKTEDTAVYSCALWAWAGSGRLRCTASEYGHWGQGTQVTVSS
notes: also called Nb S12
B5: hSIRPα nanobody S41 (VHH)
VHH: HVQLVESGGGLVQPGGSLRLSCAASGETLDYYAIGYVRQAPGKEREGVSCISSRGDNTNYADSVKGRFTISRDNANNTVYLQMNSLKPEDTAVYYCVAIKDSWQNYYCSVGWVEYDVWGQGTQVTVSS
notes: The single assignment S41 = 26 follows only from the listing order; also called Nb S41
B6: chelator conjugated hSIRPα-S36K>R Nb (VHH)
VHH: EVQLVESGGGLVQPGGSLRLSCAASGFTLDYYAIGWFRQVPGREREGVSCISSDGGGNTYYADSVRGRFTISRDNARNTVYLQMNSLRPEDSAVYSCAAGPTYYSGSYCRDPHSDYDYWGQGTQVTVSS
modifications: p-NCS-benzyl-NODA-GA chelator conjugated to the single remaining primary NH2-group at the N-terminus
B7: hSIRPα nanobody S36 (VHH)
VHH: B6 VHH with R43K, R66K, R77K, R88K
notes: also called Nb S36; hSIRPα-S36 Nb
B8: hSIRPα nanobody S7 (VHH)
VHH: HVQLVESGGGLVQVGDSLRLSCAPSGRTFRAYAMAWFRQAPGKEREFVAAIRWIGGTPSYKDSVKGRFTISRDNARNTFYLQMNSLEPQDTGVYYCAAEETQKGSGLGHDGRHYDYWGQGTPVTVSS
notes: Expressed from pHEN6 in E. coli and purified by IMAC; the tag is not described; also called Nb S7
B9: hSIRPα nanobody S33 (VHH)
VHH: EVQLVESGGGLVQPGGSLRLSCTTSGFTLDYYSVGWFRQAPGKEREGVSCITASGSSTNYANSVKGRFTISRDKVKNTVYLQMSSLKPEDTAVYYCAAEPCTVVAGILQAPTSDFGSWGQGTQVTVSS
notes: also called Nb S33

Tests used:
hSIRPγ on U2OS cells [1] = target: T1, hSIRPγ on U2OS cells (human, UniProt Q9P1W8 29-387); assay: live-cell immunofluorescence on U2OS cells transiently expressing hSIRPγ, detection with anti-VHH-Cy5
T1 construct: whole, on cells; also called SIRP gamma
T1 sequence (Q9P1W8 29-387): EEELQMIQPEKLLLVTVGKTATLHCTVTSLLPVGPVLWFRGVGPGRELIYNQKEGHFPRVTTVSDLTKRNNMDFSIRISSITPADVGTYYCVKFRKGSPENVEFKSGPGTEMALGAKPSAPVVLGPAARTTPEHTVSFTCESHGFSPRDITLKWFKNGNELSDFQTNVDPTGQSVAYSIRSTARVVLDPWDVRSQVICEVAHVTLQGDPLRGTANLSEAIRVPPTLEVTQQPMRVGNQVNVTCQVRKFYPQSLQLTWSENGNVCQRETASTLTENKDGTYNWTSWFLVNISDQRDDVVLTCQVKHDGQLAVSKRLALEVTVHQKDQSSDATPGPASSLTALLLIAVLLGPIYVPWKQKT
Method: (§1) Data are presented as mean±SD of three technical replicates.
(§2) Stably expressing hSIRPα U2OS cells, U2OS wt or U2OS cells transiently expressing individual hSIRPα domains (D1-3) with SPOT-Tag or different hSIRP family members (hSIRPα-V1, hSIRPα-V2, hSIRPβ1, hSIRPγ, murine SIRPα) were plated at ˜10,000 cells per well of a μClear 96-well plate (Greiner Bio One, cat. #655090) and cultivated overnight at standard conditions. For imaging, medium was replaced by live-cell visualization medium DMEMgfp-2 (Evrogen, cat. #MC102) supplemented with 10% FBS, 2 mM L-glutamine, 2 μg/ml Hoechst33258 (Sigma Aldrich) for nuclear staining. 1-100 nM of unlabeled hSIRPα Nbs in combination with 2.5 μg/ml anti-VHH secondary Cy5 AffiniPure Goat Anti-Alpaca IgG (Jackson Immuno Research) were added and incubated for 1 h at 37° C. For control staining hSIRPα Ab PE (SE5A5, BioLegend) and bivSPOT-Nb labeled with AlexaFluor647 (AF647) were used. Images were acquired with a MetaXpress Micro XL system (Molecular Devices) at 20× or 40× magnification.
(§3) Moreover, with hSIRPαV1 and hSIRPαV2, two isoforms are expressed either homozygously (v1/v1 or v2/v2) or heterozygously (v1/v2), and the frequency of distribution varies between human subpopulations (Sim et al., “Discovery of high affinity, pan-allelic, and pan-mammalian reactive antibodies against the myeloid checkpoint receptor SIRPα”, MAbs. Taylor & Francis (2019) pp. 1036-1052). To address the question of specificity, hSIRPβ1, hSIRPγ or the hSIRPα polymorphisms hSIRPα-V1 and hSIRPα-V2 were transiently expressed in U2OS cells and their recognition was analyzed by the selected hSIRPα Nbs by immunofluorescence staining. In addition, murine SIRPα was included to evaluate potential cross-reactivity between human and mouse SIRPα variants (FIG. 3A; data not shown).

[2] = target: T2, murine SIRPα on U2OS cells (mouse, UniProt P97797 32-513); assay: live-cell immunofluorescence on U2OS cells transiently expressing murine SIRPα
T2 construct: whole, on cells; also called mouse SIRPα
T2 sequence (looked up): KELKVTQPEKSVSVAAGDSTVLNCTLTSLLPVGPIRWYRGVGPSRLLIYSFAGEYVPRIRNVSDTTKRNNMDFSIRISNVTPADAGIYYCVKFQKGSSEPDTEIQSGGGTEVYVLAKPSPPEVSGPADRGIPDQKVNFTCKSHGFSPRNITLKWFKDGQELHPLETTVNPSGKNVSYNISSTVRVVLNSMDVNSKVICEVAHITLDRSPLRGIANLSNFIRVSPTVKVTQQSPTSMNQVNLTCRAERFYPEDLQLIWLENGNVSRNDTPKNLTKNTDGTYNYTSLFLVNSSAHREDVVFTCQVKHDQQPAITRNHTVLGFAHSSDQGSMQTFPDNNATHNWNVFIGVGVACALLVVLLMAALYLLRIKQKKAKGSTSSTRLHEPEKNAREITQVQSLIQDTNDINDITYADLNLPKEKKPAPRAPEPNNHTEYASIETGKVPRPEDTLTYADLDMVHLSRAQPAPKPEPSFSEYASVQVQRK
Method: as §2, §3

[3] = target: T3, recombinant hSIRPα (extracellular portion) (human, UniProt P78324 31-373, biotinylated with Sulfo-NHS-LC-LC-Biotin where immobilised on streptavidin sensors); assay: BLI, biotinylated hSIRPα immobilised on streptavidin biosensors, Nb in solution, global 1:1 fit
T3 construct: extracellular domain; The limits aa31-370 are stated for the immunogen; The BLI and HDX text says only 'recombinant hSIRPα' / 'biotinylated hSIRPα'; also called biotinylated hSIRPα
T3 sequence (P78324 31-373): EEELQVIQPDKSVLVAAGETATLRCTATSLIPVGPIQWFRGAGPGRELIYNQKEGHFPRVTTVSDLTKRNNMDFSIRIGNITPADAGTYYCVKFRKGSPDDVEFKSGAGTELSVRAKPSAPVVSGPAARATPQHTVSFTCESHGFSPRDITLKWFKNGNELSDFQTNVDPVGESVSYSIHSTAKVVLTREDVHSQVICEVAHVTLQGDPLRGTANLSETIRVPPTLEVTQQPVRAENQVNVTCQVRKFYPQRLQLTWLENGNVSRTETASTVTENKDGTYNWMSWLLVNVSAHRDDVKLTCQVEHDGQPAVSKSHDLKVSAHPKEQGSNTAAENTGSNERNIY
Method: (§4) Biotinylated hSIRPα was immobilized on streptavidin biosensors.
(§5) Analysis of binding kinetics of hSIRPα specific Nbs was performed using the Octet RED96e system (Sartorius) as per the manufacturer's recommendations. In brief, […] of biotinylated hSIRPα diluted in Octet buffer (PBS, 0.1% BSA, 0.02% Tween20) was immobilized on streptavidin coated biosensor tips (SA, Sartorius) for 40 s. In the association step, a dilution series of Nbs ranging from 0.625-320 nM were reacted for 240 s followed by dissociation in Octet buffer for 720 s. Every run was normalized to a reference run applying Octet buffer for association. Data were analyzed using the Octet Data Analysis HT 12.0 software applying the 1:1 ligand-binding model and global fitting. For epitope binning two consecutive association steps with different Nbs were performed. By analyzing the binding behavior of the second Nb, conclusions about shared epitopes were drawn. For the hCD47 competition assay hCD47 was biotinylated and immobilized on SA biosensors followed by the application of pre-mixed solutions containing hSIRPα (20 nM) and Nb (250 nM). As control the hCD47-competing Ab KWAR23 (5 nM) was used.

hSIRPα-V2 on U2OS cells = target: T4, hSIRPα-V2 on U2OS cells (human, UniProt P78324 31-504); assay: live-cell immunofluorescence on U2OS cells transiently expressing hSIRPα-V2, detection with anti-VHH-Cy5
T4 construct: whole, on cells
T4 sequence (P78324 other isoform, or with tags, fused parts or gaps limits assumed): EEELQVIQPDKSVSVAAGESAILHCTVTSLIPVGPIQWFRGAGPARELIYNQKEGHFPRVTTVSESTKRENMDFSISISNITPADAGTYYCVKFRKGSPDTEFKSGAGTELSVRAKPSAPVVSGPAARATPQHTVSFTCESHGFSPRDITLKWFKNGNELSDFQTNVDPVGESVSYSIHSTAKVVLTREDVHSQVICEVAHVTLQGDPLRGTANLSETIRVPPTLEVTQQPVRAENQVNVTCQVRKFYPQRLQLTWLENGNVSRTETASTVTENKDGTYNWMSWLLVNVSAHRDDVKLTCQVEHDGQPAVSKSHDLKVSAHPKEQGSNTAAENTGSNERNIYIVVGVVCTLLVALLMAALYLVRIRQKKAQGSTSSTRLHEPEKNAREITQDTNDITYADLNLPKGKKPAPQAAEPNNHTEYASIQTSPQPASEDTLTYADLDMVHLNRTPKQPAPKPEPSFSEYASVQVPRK
Method: as §1
Stably expressing hSIRPα U2OS cells, U2OS wt or U2OS cells transiently expressing individual hSIRPα domains (D1-3) with SPOT-Tag or different hSIRP family members (hSIRPα-V1, hSIRPα-V2, hSIRPβ1, hSIRPγ, murine SIRPα) were plated at ˜10,000 cells per well of a μClear 96-well plate (Greiner Bio One, cat. #655090) and cultivated overnight at standard conditions. For imaging, medium was replaced by live-cell visualization medium DMEMgfp-2 (Evrogen, cat. #MC102) supplemented with 10% FBS, 2 mM L-glutamine, 2 μg/ml Hoechst33258 (Sigma Aldrich) for nuclear staining. […]
(§6) Moreover, with hSIRPαV1 and hSIRPαV2, two isoforms are expressed either homozygously (v1/v1 or v2/v2) or heterozygously (v1/v2), and the frequency of distribution varies between human subpopulations (Sim et al., “Discovery of high affinity, pan-allelic, and pan-mammalian reactive antibodies against the myeloid checkpoint receptor SIRPα”, MAbs. Taylor & Francis (2019) pp. 1036-1052). To address the question of specificity, hSIRPβ1, hSIRPγ or the hSIRPα polymorphisms hSIRPα-V1 and hSIRPα-V2 were transiently expressed in U2OS cells and their recognition was analyzed by the selected hSIRPα Nbs by immunofluorescence staining. […]

[4] = target: T3, recombinant hSIRPα (extracellular …); assay: BLI, biotinylated hSIRPα immobilised on streptavidin biosensors, chelator conjugated S36K>R at 1.25-10 nM
Method: Biotinylated hSIRPα was immobilized on streptavidin biosensors. Kinetic measurements were performed by using four concentrations of purified Nbs ranging from 1.25 nM to 10 nM; (E) Stability analysis of chelator conjugated hSIRPα-S36_{K>R} Nb by nanoDSF as fluorescence ratios (350 nm/330 nm) and light intensity loss due to scattering illustrated as first derivative before (To) and after 10 days of accelerated aging at 37° C. (T₁₀); and (F) Phagocytosis of DLD-1 cells by human monocyte-derived macrophages treated with anti-EGFR cetuximab and chelator conjugated hSIRPα-S36_{K>R} Nb. Analysis of phagocytosis of hSIRPα-S36_{K>R} Nb in combination with cetuximab of three different donors (K1, K2, K3). Data are presented as mean±SD of three technical replicates. And
Analysis of binding kinetics of hSIRPα specific Nbs was performed using the Octet RED96e system (Sartorius) as per the manufacturer's recommendations. In brief, […] of biotinylated hSIRPα diluted in Octet buffer (PBS, 0.1% BSA, 0.02% Tween20) was immobilized on streptavidin coated biosensor tips (SA, Sartorius) for 40 s. In the association step, a dilution series of Nbs ranging from 0.625-320 nM were reacted for 240 s followed by dissociation in Octet buffer for 720 s. […] Data were analyzed using the Octet Data Analysis HT 12.0 software applying the 1:1 ligand-binding model and global fitting. […]

[5] = target: T3, recombinant hSIRPα (extracellular …); assay: BLI, biotinylated hSIRPα immobilised on streptavidin biosensors, S36 at 0.625-5 nM, global 1:1 fit
Method: as §4, §5

hSIRPβ1 on U2OS cells = target: T5, hSIRPβ1 on U2OS cells (human, UniProt O00241 30-398); assay: immunofluorescence on U2OS cells transiently expressing hSIRPβ1
T5 construct: whole, on cells; also called SIRP beta
T5 sequence (O00241 30-398): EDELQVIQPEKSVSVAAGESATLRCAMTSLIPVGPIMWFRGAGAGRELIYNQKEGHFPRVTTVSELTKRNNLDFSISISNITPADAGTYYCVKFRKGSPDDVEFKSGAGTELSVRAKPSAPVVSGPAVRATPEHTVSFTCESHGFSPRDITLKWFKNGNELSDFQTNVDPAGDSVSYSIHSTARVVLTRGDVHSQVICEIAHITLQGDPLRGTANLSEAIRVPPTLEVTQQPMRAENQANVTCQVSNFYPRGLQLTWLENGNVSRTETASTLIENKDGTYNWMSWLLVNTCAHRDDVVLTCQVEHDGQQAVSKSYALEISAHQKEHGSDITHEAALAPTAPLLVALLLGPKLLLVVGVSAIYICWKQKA
Method: as §2, with “For control staining hSIRPα Ab PE (SE5A5, BioLegend) and bivSPOT-Nb labeled with AlexaFluor647 (AF647) were used. Images were acquired with a MetaXpress Micro XL system (Molecular Devices) at 20× or 40× magnification.” left out
as §6

hSIRPγ on U2OS cells [6] = target: T1, hSIRPγ on U2OS cells; assay: immunofluorescence on U2OS cells transiently expressing hSIRPγ
Method: as §2, with “For control staining hSIRPα Ab PE (SE5A5, BioLegend) and bivSPOT-Nb labeled with AlexaFluor647 (AF647) were used. Images were acquired with a MetaXpress Micro XL system (Molecular Devices) at 20× or 40× magnification.” left out
as §6

Binder	binding result (hSIRPγ on U2OS cells [1])	binding result [2]	Kd [3]	koff [3]	kon [3]	binding result (hSIRPα-V2 on U2OS cells)	Kd [4]	Kd [5]	binding result (hSIRPβ1 on U2OS cells)	binding result (hSIRPγ on U2OS cells [6])
B1	no binding (tested: not on the sheet; 1-100 nM per paragraph 140)	no binding (tested: 1-100 nM)	2.53 nM	0.00164 s⁻¹	646000 M⁻¹ s⁻¹					
B2		no binding (tested: 1-100 nM)	4.61 nM	0.00915 s⁻¹	1.99e+06 M⁻¹ s⁻¹	no binding (tested: not on the sheet; 1-100 nM per paragraph 140)				
B3		no binding (tested: 1-100 nM)	0.46 nM	0.0009 s⁻¹	2.04e+06 M⁻¹ s⁻¹					
B4		no binding (tested: 1-100 nM)	25.9 nM	0.0127 s⁻¹	490000 M⁻¹ s⁻¹	no binding (tested: not on the sheet; 1-100 nM per paragraph 140)				
B5			5.65 nM	0.00383 s⁻¹	678000 M⁻¹ s⁻¹					
B6							0.19 nM			
B7		no binding (tested: 1-100 nM)	0.12 nM	0.0002 s⁻¹	1.52e+06 M⁻¹ s⁻¹			0.12 nM	binds	binds
B8	no binding (tested: not on the sheet; 1-100 nM per paragraph 140)	no binding (tested: 1-100 nM)	20 nM	0.0123 s⁻¹	610000 M⁻¹ s⁻¹					
B9	no binding (tested: not on the sheet; 1-100 nM per paragraph 140)	no binding (tested: 1-100 nM)	20 nM	0.00544 s⁻¹	267000 M⁻¹ s⁻¹					
